{
  "source": "paper PMC6688529",
  "about": "“Dissecting the cytochrome c2–reaction centre interaction in bacterial photosynthesis using single molecule force spectroscopy” (Biochemical Journal, 2019)",
  "key": {"[1]": {"target": "T1, monomeric RC–His12–LH1–PufX core complex (reaction centre light-harvesting 1-PufX) (Rba. sphaeroides, UniProt P0C0Y7 1-260; P0C0Y8 2-282; P0C0Y9 2-308; P0C0X9 1-58; P0C0Y1 1-49; P13402 1-82)", "assay": "PeakForce QNM single-molecule force spectroscopy (AFM); RC–LH1–PufX on the AFM tip, illuminated; pre-reduced cytochrome c2-His6 (and His6-CFP in patterned lines) held on a Ni-NTA SiOx substrate; 10 mM HEPES pH 7.4, 45 mM KCl, room temperature; modulation frequencies 0.5, 1 and 2 kHz", "settings": "both partners purified"}, "[2]": {"target": "T1, monomeric RC–His12–LH1–PufX core …", "assay": "single-molecule dynamic force spectroscopy (AFM); RC–LH1–PufX on the AFM tip via His12/Ni-NTA and a PEG12 linker, kept photo-oxidised by white light; pre-reduced cytochrome c2-His6 held on a Ni-NTA SiOx substrate via His6; 10 mM HEPES pH 7.4, 45 mM KCl, room temperature; retract velocity 200–3000 nm s^-1; the paper calls the values apparent", "settings": "both partners purified"}},
  "data": [
    {"binder": "cytochrome c2-His6 (natural protein, cytochrome c2, cloned from Rba. sphaeroides strain 2.4.1; Carries a haem cofactor; pre-reduced with 1 mM sodium dithionite before the measurements; The gene was cloned with its own start; the signal peptide is surmised to be cut in Rba. sphaeroides; also called Cyt c2–His6; cyt c2; source: Rba. sphaeroides ΔcycA strain carrying the gene on pRK415, purified (LDAO-solubilised membrane fraction, …)) QEGDPEAGAKAFNQCQTCHVIVDDSGTTIAGRNAKTGPNLYGVVGRTAGTQADFKGYGEGMKEAGAKGLAWDEEHFVQYVQDPTKFLKEYTGDAKAKGKMTFKLKKEADAHNIWAYLQQVAVRP", "values": [
      {"measurement": "koff", "setting": "[1]", "value": 198, "unit": "s⁻¹"},
      {"measurement": "koff", "setting": "[2]", "value": 7.5, "unit": "s⁻¹"}
    ]}
  ]
}
